Results taken from US11130803B2, “Isoform-selective TGFβ1 inhibitors and use thereof” (Scholar Rock, Inc., priority 2018, dated 2021).
Numbering of substitutions follows the chain as printed.

B1: Ab13: monoclonal antibody; VH SEQ ID NO: 242, VL SEQ ID NO: 243 (antibody, V domains shown)
VH: EVQLLESGGGLVQPGGSLRLSCAASGFTFADYAMTWVRQAPGKGLEWVSAISSFASAIYYADSVKGRFTISRDNSKNTLYLQMNSLRAEDTAVYYCARVSSGHWDFDYWGQGTLVTVSS
VL: DIQMTQSPSSLSASVGDRVTITCRASQSISSYLNWYQQKPGKAPKLLIYAASSLQSGVPSRFSGSGSGTDFTLTISSLQPEDFATYYCQQVYDPPLTFGGGTKVEIK
B2: Ab14: monoclonal antibody; VH SEQ ID NO: 244, VL SEQ ID NO: 243 (antibody, V domains shown)
VH: B1 VH with A30S, D31A, S53G, F54T, A55G, S56G, A57S, I58T
VL: B1 VL
B3: Ab15: monoclonal antibody; VH SEQ ID NO: 245, VL SEQ ID NO: 241 (antibody, V domains shown)
VH: EVQLVESGGGVVQPGRSLRLSCAASGFTFSDYAMVWVRQAPGKGLEWVSAISGSGFTTYYADSVKGRFTISRDNSKNTLYLQMNSLRAEDTAVYYCARVSSGHWDFDYWGQGTLVTVSS
VL: B1 VL with M4L, S53N, V91T, D93T, P94V
B4: Ab16: monoclonal antibody; VH SEQ ID NO: 247, VL SEQ ID NO: 241 (antibody, V domains shown)
VH: B3 VH with V5L, V11L, R16G, D31N, V35S
VL: B1 VL with M4L, S53N, V91T, D93T, P94V
B5: Ab21: monoclonal antibody; VH SEQ ID NO: 129, VL SEQ ID NO: 15 (antibody, V domains shown)
VH: EVQLVESGGGLVQPGGSLRLSCAASGFTFSSFSMDWVRQAPGKGLEWVSYISPDASTIYYADSVKGRFTISRDNAKNSLYLQMNSLRAEDTAVYYCARGVLDYGDMLDPWGQGTLVTVSS
VL: DIQMTQSPSSLSASVGDRVTITCQASQDITNYLNWYQQKPGKAPKLLIYDASNLETGVPSRFSGSGSGTDFTFTISSLQPEDIATYYCQQADNHPPWTFGGGTKVEIK
B6: Ab23: monoclonal antibody; VH SEQ ID NO: 131, VL SEQ ID NO: 15 (antibody, V domains shown)
VH: B5 VH with D35N, D54S, S56D, S78T
VL: B5 VL
B7: Ab27: monoclonal antibody; VH SEQ ID NO: 135, VL SEQ ID NO: 15 (antibody, V domains shown)
VH: B5 VH with S31F, F32Y, S33A, D35N
VL: B5 VL
B8: Ab25: monoclonal antibody; VH SEQ ID NO: 133, VL SEQ ID NO: 15 (antibody, V domains shown)
VH: B5 VH with S30G
VL: B5 VL
B9: Ab28: monoclonal antibody; VH SEQ ID NO: 136, VL SEQ ID NO: 15 (antibody, V domains shown)
VH: B5 VH with A97V
VL: B5 VL

These molecules were tested against T1, recombinant human LTBP1-proTGFβ1 complex (Homo sapiens, UniProt P01137) (assay: Octet (Biolayer Interferometry) in vitro kinetic binding). Conditions: in M.
T1 construct: made in house; host or cells: Expi293F cells, transient co-transfection
T1 sequence (P01137 30-390): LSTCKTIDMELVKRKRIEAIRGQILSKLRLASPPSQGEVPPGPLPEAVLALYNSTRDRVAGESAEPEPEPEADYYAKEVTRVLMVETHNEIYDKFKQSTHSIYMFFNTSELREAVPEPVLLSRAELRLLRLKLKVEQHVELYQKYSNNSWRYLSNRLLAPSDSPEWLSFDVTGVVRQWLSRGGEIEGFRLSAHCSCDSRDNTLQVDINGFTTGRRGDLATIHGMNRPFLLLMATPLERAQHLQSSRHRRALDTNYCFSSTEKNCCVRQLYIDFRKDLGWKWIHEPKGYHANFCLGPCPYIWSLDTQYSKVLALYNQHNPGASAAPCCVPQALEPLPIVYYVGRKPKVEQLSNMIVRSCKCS
T1 sequence (Q14766 873-1507 partner): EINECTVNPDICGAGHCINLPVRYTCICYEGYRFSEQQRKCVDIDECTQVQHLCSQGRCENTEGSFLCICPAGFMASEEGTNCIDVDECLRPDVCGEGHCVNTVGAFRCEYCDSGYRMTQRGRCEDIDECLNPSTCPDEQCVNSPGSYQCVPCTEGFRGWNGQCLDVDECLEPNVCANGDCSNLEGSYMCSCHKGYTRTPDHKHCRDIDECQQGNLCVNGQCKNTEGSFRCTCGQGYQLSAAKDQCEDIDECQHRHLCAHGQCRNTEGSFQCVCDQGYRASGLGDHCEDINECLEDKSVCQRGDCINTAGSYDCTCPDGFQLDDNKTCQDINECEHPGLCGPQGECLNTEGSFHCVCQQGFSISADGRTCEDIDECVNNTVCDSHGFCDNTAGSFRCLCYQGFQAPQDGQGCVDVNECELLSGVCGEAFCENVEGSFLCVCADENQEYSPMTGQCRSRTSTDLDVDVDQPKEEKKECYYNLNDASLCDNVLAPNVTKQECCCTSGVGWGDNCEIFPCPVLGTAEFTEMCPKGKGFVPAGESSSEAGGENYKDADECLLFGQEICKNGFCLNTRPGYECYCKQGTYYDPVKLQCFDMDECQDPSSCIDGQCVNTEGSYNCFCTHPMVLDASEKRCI
Excerpt: (§1) Biolayer Interferometry (BLI):BLI is a label-free technology for optically measuring biomolecular interactions, e.g., between a ligand immobilized on the biosensor tip surface and an analyte in solution. BLI provides the ability to monitor binding specificity, rates of association and dissociation, or concentration, with precision and accuracy. BLI platform instruments are commercially available, for example, from ForteBio and are commonly referred to as the Octet® System.
(§2) BLI-based binding assays are widely used in the art for measuring affinities and kinetics of antibodies to antigens. It is a label-free technology in which biomolecular interactions are analyzed on the basis of optical interference. One of the proteins, for example, an antibody being tested, can be immobilized on the biosensor tip. When the other protein in solution, for example, an antigen, becomes bound to the immobilized antibody, it causes a shift in the interference pattern, which can be measured in real-time. This allows the monitoring of binding specificity, rates of association and dissociation, as well as concentration dependency. […] Due to its ease of use and fast results, BLI-based assays such as the Octet® system (available from ForteBio/Molecular Devices, Fremont Calif.), are particularly convenient when used as an initial screening method to identify and separate a pool of “binders” from a pool of “non-binders” or “weak binders” in the screening process.
(§3) Table 8 below provides non-limiting examples of high-affinity, context-independent proTGFβ1 antibodies encompassed by the present invention. The table provides representative results from in vitro binding assays, as measured by Octet®.
(§4) Column (A) of the table lists monoclonal antibodies with discrete amino acid sequences. […] Columns (B), (D), (E) and (F) provide affinities of each of the listed antibodies, measured in KD. […] Average KD values of (B) and (C) are shown in the corresponding column (D), which collectively represents affinities of the antibodies to ECM- or matrix-associated proTGFβ1 complexes. Similarly, Average KD values of (E) and (F) are shown in the corresponding column (G), which collectively represents affinities of the antibodies to cell-surface or cell-associated proTGFβ1 complexes. Finally, relative ratios between the average KD values from columns (D) and (G) are expressed as “fold bias” in column (H). Thus, the greater the number of column (H) is, the greater bias exists for the particular antibody, when comparing binding preferences of the antibody for matrix-associated complexes and cell-surface complexes. This is one way of quantitatively representing and comparing inherent bias of antibodies to their target complexes. Such analyses may be useful in guiding the selection process for a candidate antibody for particular therapeutic use.
(§5) In some embodiments, the binding affinity of an antibody, or antigen binding portion thereof, to an antigen (e.g., protein complex), such as presenting molecule-proTGFβ1 complexes, is determined using an Octet assay. In some embodiments, an Octet assay is an assay that determines one or more a kinetic parameters indicative of binding between an antibody and antigen. In some embodiments, an Octet® system (ForteBio, Menlo Park, Calif.) is used to determine the binding affinity of an antibody, or antigen binding portion thereof, to presenting molecule-proTGFβ1 complexes. For example, binding affinities of antibodies may be determined using the fortéBio Octet QKe dip and read label free assay system utilizing bio-layer interferometry. In some embodiments, antigens are immobilized to biosensors (e.g., streptavidin-coated biosensors) and the antibodies and complexes (e.g., biotinylated presenting molecule-proTGFβ1 complexes) are presented in solution at high concentration ([…]) to measure binding interactions. […]

In order of falling “(B) hLTBP1, Matrix-associated proTGFb1 (KD)” value:
1. B6  4.17E−10
2. B9  3.40E−10
3. B2  3.36E−10
4. B1  2.76E−10
5. B5  2.25E−10
6. B8  2.17E−10
7. B4  1.81E−10
8. B7  1.78E−10
9. B3  1.50E−10

These molecules were tested against T2, recombinant human LRRC33-proTGFβ1 complex (Homo sapiens, UniProt P01137) in the same assay as above. Conditions: in M.
T2 construct: made in house
T2 sequence (P01137 30-390): as the sequence (P01137 30-390) above
T2 sequence (Q86YC3 19-650 partner limits assumed): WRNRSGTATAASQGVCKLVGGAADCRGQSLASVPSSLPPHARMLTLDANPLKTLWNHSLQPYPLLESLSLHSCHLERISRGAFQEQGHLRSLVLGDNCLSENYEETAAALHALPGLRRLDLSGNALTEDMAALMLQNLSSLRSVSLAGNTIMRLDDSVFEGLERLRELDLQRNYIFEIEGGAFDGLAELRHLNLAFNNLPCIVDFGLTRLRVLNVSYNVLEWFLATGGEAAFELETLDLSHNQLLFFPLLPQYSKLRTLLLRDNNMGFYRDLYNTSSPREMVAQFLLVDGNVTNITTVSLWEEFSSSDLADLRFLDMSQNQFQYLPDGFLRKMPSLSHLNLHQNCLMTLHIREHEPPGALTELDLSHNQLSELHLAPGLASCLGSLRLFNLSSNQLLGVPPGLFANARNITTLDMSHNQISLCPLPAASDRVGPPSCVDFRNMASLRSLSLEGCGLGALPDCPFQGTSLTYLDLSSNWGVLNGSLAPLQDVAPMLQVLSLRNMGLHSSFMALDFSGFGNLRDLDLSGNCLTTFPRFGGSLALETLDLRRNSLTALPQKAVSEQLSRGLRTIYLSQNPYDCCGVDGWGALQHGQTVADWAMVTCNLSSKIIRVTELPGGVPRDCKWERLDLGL
Excerpt: as §1, §2, §3, §4, §5

In order of rising “(F) hLRRC33, Cell-associated proTGFb1 (KD)” value:
1. B7  2.99E−10
2. B8  4.09E−10
3. B9  4.09E−10
4. B5  4.55E−10
5. B6  4.55E−10
6. B4  6.31E−10
7. B3  7.02E−10
8. B2  1.34E−09
9. B1  1.40E−09

Each molecule was assayed against T3, recombinant human LTBP3-proTGFβ1 complex (Homo sapiens, UniProt P01137) in the same assay as above. Conditions: in M.
T3 construct: made in house; host or cells: Expi293F cells, transient co-transfection
T3 sequence (P01137 30-390): as the sequence (P01137 30-390) above
T3 sequence (Q9NS15 866-1039 partner limits assumed): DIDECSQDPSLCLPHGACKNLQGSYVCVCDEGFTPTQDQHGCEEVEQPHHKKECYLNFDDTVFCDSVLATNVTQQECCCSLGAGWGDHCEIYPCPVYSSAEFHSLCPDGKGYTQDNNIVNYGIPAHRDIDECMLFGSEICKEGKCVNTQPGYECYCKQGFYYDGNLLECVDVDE
Excerpt: as §1, §2, §3, §4, §5

In order of falling “(C) hLTBP3, Matrix-associated proTGFb1 (KD)” value:
1. B6  4.68E−10
2. B2  3.46E−10
3. B9  3.16E−10
4. B5  2.68E−10
5. B1  2.49E−10
6. B7  2.38E−10
7. B3  1.68E−10
8. B8  1.52E−10
9. B4  1.32E−10

These molecules were tested against T4, recombinant human GARP-proTGFβ1 complex (Homo sapiens, UniProt P01137) in the same assay as above. Conditions: in M.
T4 construct: made in house
T4 sequence (P01137 30-390): as the sequence (P01137 30-390) above
T4 sequence (Q14392 20-627 partner limits assumed): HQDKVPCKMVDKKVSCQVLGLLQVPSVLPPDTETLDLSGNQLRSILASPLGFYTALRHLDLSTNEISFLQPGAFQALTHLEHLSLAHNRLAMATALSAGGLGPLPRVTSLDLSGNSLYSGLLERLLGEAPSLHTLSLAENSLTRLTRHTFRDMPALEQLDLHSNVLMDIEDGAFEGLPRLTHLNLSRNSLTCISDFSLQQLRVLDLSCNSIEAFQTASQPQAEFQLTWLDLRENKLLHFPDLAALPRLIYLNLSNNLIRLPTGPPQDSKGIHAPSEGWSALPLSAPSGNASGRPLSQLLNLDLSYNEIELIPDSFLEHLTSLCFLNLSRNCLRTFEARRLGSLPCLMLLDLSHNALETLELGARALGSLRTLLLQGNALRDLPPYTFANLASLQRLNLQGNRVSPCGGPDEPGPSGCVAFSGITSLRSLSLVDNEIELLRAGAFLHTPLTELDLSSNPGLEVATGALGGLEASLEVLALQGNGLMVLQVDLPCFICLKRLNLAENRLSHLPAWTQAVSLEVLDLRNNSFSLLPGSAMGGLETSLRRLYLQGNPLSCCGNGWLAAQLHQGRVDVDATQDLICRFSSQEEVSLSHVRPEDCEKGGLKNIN
Excerpt: as §1, §2, §3, §4, §5

In order of falling “(E) hGARP, Cell-associated proTGFb1 (KD)” value:
1. B2  1.05E−08
2. B1  1.00E−08
3. B3  7.01E−09
4. B4  4.16E−09
5. B6  1.34E−09
6. B5  8.33E−10
7. B9  7.97E−10
8. B8  4.88E−10
9. B7  4.24E−10

Each molecule was assayed on matrix-associated (LTBP1/LTBP3) and cell-associated (GARP/LRRC33) proTGFβ1 complexes (assay: Octet: average KD and fold bias, matrix- vs cell-associated complexes). Conditions: average KD of (B) and (C), read-out: (D) ECM AVRG.
Type: binding, human

In order of falling Kd:
1. B6  442 pM
2. B2  341 pM
3. B9  328 pM
4. B1  262 pM
5. B5  246 pM
6. B7  208 pM
7. B8  184 pM
8. B3  159 pM
9. B4  156 pM

The molecules below were run on matrix-associated (LTBP1/LTBP3) and cell-associated (GARP/LRRC33) proTGFβ1 complexes in the same assay as above. Conditions: average KD of (E) and (F), cell-associated complexes, read-out: (G) Cell AVRG.
Type: binding, human
Excerpt: Column (A) of the table lists monoclonal antibodies with discrete amino acid sequences. […] Columns (B), (D), (E) and (F) provide affinities of each of the listed antibodies, measured in KD. […] Average KD values of (B) and (C) are shown in the corresponding column (D), which collectively represents affinities of the antibodies to ECM- or matrix-associated proTGFβ1 complexes. Similarly, Average KD values of (E) and (F) are shown in the corresponding column (G), which collectively represents affinities of the antibodies to cell-surface or cell-associated proTGFβ1 complexes. Finally, relative ratios between the average KD values from columns (D) and (G) are expressed as “fold bias” in column (H). […] This is one way of quantitatively representing and comparing inherent bias of antibodies to their target complexes.
Average KD values between the two matrix-associated and cell-associated complexes are calculated, respectively (see columns (D) and (G)). These average KD values can then be used to ask whether bias in binding activities exists between complexes associated with matrix vs. complexes associated with cell surface (e.g., immune cells). Bias may be expressed as “fold-difference” in the average KD values, as illustrated in Table 8.

In order of falling Kd:
1. B2  5920 pM
2. B1  5700 pM
3. B3  3860 pM
4. B4  2400 pM
5. B6  898 pM
6. B5  644 pM
7. B9  603 pM
8. B8  448 pM
9. B7  362 pM

Same assay, conditions: ratio of average KD cell-associated / matrix-associated

In order of falling “(H) G/D (fold bias)” value:
1. B3  24.25 fold
2. B1  21.71 fold
3. B2  17.36 fold
4. B4  15.307 fold
5. B5  2.613 fold
6. B8  2.431 fold
7. B6  2.028 fold
8. B9  1.838 fold
9. B7  1.738 fold
